Data as given in PMC9385671 (Nature Communications, 2022).
“And” between values parts separate entries of the source, which are not always exact repeats. Equal entries are not always repeated.

Assays:
[1] = target: T1, FtsZ-YFP-mts (Escherichia coli, UniProt P0A9A6); conditions: on SLB; slope of kymographs
Description: (§1) Images corresponded to an average of 5–10 frames from a time-series experiment. For the kymograph analysis, time-series acquisitions were filtered using a standard mean filter (2 pixel) and were drift corrected (multistackreg plugin). A MATLAB script allowed the user to define a ring by providing two coordinates. Every ring was automatically fitted to a circle with radius r. Then, three trajectories corresponding to three concentric circles having radii r, r + 1, and r − 1 pixels were determined. At this point, the script read the time-series data and calculated a kymograph for each time point and trajectory. To automatically calculate the slope, the kymograph was smoothed with a Savitzky-Golay filter of order 2 and enhance its contrast using a contrast-limited-adaptive-histogram-equalization (CLAHE) routine (MATLAB). Next, using Fourier analysis from previous study, the characteristic frequency for the patterns on the kymograph was found. Finally, the slope corresponded to the change in phase at this frequency. Quality criteria were properly chosen to reject low-quality regions over the kymograph. To synchronize time-lapse acquisitions, the initial frame (time 0) was defined when surface mean intensity was around 200 A.U.

[2] = tested on: FtsZ-YFP-mts; conditions: on SLB; mean ± SD
Description: as §1

[3] = target: T1, FtsZ-YFP-mts; conditions: on SLB; n = 6
Description: (§2) Fluorescence recovery after photobleaching data (FRAP) on the SLB were evaluated by choosing two separately circle areas (r = 4 µm). One circle was taken as a reference. Another one was photobleached by 20 iterations of 488 nm, laser under 100% laser power. Their fluorescence recovery in the green channel was monitored. Intensity traces were collected using Fiji, corrected for photobleaching and normalized with the pre-bleaching intensity and the reference intensity. The fluorescence recovery curves were then fitted with mono-exponential equation using Originpro (v_2017 & v_2019):1 Y=Ae^−kt+B, where Y represents fluorescence intensity at time t, A and B are parameters, and k represents the rate constant. The half-life, t1/2, was determined using the following equation:2 t1/2=ln2k^−1

[4] = tested on: FtsZ-YFP-mts; conditions: FRAP
Description: as §2

[5] = target: T1, FtsZ-YFP-mts; conditions: total protein 0.5 µM
Description: The final volume of a sample was approximately 250 μl. […] Polymerization was induced by adding 4 mM GTP.

[6] = target: T1, FtsZ-YFP-mts; type: biochemical; set-up: made in house; host or cells: E. coli BL21(DE3) for the wild type; conditions: 5 μM protein, 1 mM GTP
Description: Reactions were performed every 20 s for a total time of 120 s. After 30 min of incubation with BIOMOL® GREEN at room temperature, the absorbance of the samples at 620 nm was monitored by TECAN plate reader. The phosphate release concentrations were calculated based on a phosphate standard curve.

[7] = target: T1, FtsZ-YFP-mts; set-up: made in house; host or cells: E. coli BL21(DE3) for the wild type; conditions: 0.5 μM protein, 4 mM GTP
Description: 1,2-dioleoyl-sn-glycero-3-phosphocholine (DOPC):1,2-dioleoyl-sn-glycero-3-phospho-(1’-rac-glycerol) (DOPG), 70:30 mol % mixture, was dissolved in chloroform in a quartz container, then dehumidified under a gas nitrogen stream. Chloroform traces were further removed through desiccation (1 h). Afterwards, the lipid film was hydrated to a final concentration of 4 mg/ml in supported lipid bilayers (SLB) buffer (50 mM Tris-HCl at pH 7.5, 150 mM KCl), and incubated at 37 °C for 30 min. The lipid film was then completely resuspended by vortexing rigorously to obtain multilamellar vesicles of different sizes. This mixture was then placed in a bath sonicator where shear forces help to reduce the size of the vesicles, giving rise to small unilamellar vesicles (SUVs). The SUV dispersion were stored at −20 °C as 20 µl aliquots.
Glass coverslips (1.5#, 24 x 24 mm) were cleaned by piranha solution overnight, followed by extensive washing with milliQ H2O. Then glass coverslips were blown dry with compressed air. The reaction chamber was prepared by attaching a plastic ring on a cleaned glass coverslip using ultraviolet glue (Thorlabs No. 68). For supported lipid bilayer formation, the SUV dispersion was diluted in SLB buffer to 0.5 mg/ml, of which 75 µl was added to the reaction chamber. Adding CaCl2 to a final concentration of 3 mM induced fusion of the vesicles and the formation of a lipid bilayer on coversilde. After 20 min of incubation at 37 °C, the sample was rinsed with 2 ml pre-warmed SLB buffer.
Polymerization was induced by adding 4 mM GTP.
The UltimateFocus feature of DeltaVision Elite maintains the focus plane constant in time. […] Fluorescence imaging was performed using a standard FITC filter set. Images were acquired with a PCO sCMOS 5.5 camera (PCO, Germany) controlled by the softWoRx Software (GE Healthcare Life Sciences, Germany). For time-lapse experiments, images were acquired every 3 s with a 0.05 s exposure time and light illumination shuttered between acquisitions.

B1: Wild type FtsZ-YFP-mts: truncated FtsZ(1-366) fused with yellow fluorescent protein (YFP) and a membrane-targeting sequence (mts) (protein)
chain: MFEPMELTNDAVIKVIGVGGGGGNAVEHMVRERIEGVEFFAVNTDAQALRKTAVGQTIQIGSGITKGLGAGANPEVGRNAADEDRDALRAALEGADMVFIAAGMGGGTGTGAAPVVAEVAKDLGILTVAVVTKPFNFEGKKRMAFAEQGITELSKHVDSLITIPNDKLLKVLGRGISLLDAFGAANDVLKGAVQGIAELITRPGLMNVDFADVRTVMSEMGYAMMGSGVASGEDRAEEAAEMAISSPLLEDIDLSGARGVLVNITAGFDLRLDEFETVGNTIRAFASDNATVVIGTSLDPDMNDELRVTVVATGIGMDKRPEITLVTNKQVQQPVMDRYQQHGMAPLTQEQKPVAKVVNDNAPQTA
modifications: left off: YFP, end not stated, kept | mts (membrane-targeting sequence), end not stated, kept
Mean rotation (treadmilling) velocity [1]: 21.63 ± 5.11 nm/s
Treadmilling velocity [2]: 21.63 ± 5.11 nm/s
FRAP half-time [3]: 4.97 ± 0.24 s
half time, ave ([4]; average of the three measurements (stdev in the row below), Fig. 2h): 4.974 s
half time ([4]; individual measurements, source data of Fig. 2h): 4.866 s and 5.251 s and 4.806 s
Ring density, Average ([5]; average of three repeats): 144248 µm−2
Ring density, single repeats ([5]; repeats 1-3, listed as 0 Cl2Y): 133565 µm−2 and 142057 µm−2 and 157123 µm−2
Ring density ([5]; stated percentage of Cl2Y modified variant): 1.44 (±0.12) × 10^5 µm^−2
GTPase activity, Average ([6]; average of two repeats): 7.3492 pi/min
GTPase activity, single repeats ([6]; repeat 1 and repeat 2): 7.7984 pi/min and 6.9 pi/min
Phosphate at Time 0.3 min ([6]; time 0.3 min, repeats 1 and 2): 6.378 µM and 10.2373 µM
Phosphate at Time 0.7 min ([6]; time 0.7 min, repeats 1 and 2): 8.111 µM
Phosphate at Time 1 min ([6]; time 1 min, repeats 1 and 2): 13.7966 µM and 9.644 µM
Phosphate at Time 2 min ([6]; time 2 min, repeats 1 and 2): 19.8222 µM and 22.4068 µM
Ring pattern formation on supported lipid bilayer ([7]; TIRFM): homogeneous treadmilling ring pattern
Average ring diameter ([7]; on SLB, mean ± SD): 0.80 ± 0.18 μm
